Measured values reported in patent US20100115665A1 (published 2010).

Target: T1, GroEL homologue from secondary endosymbiotic bacteria of the whitefly Bemisia tabaci (endosymbiotic bacteria of Bemisia tabaci, UniProt C4K477 1-552)
T1 construct: Chaperonin expressed in planta and assayed in plant sap; also called whitefly GroEL; B. tabaci GroEL
Experiment: capture of sap of infected GroEL-transgenic N. benthamiana (7 dpi) in anti-GroEL coated tubes; RT-PCR and Western blot with virus-specific antibodies
Description: Transgenic and non-transgenic N. benthamiana plants were mechanically inoculated with GVA and with TMV. Infection was assessed by RT-PCR and by Western blot analyses at 5-7 dpi (FIGS. 12A and 13A). The possible binding of GVA and TMV particles to GroEL in transgenic N. benthamiana plants was assessed as described above. Sap of infected transgenic plants at 7 dpi was incubated in PCR tubes coated with anti-GroEL antibody. Binding of GroEL-virus complexes to the coated tubes was assayed by RT-PCR and with virus-specific antibodies.

B1: Grapevine virus A (GVA) (other)
chain: MAHYAKRVEIRAIIEELVLAKAQPTDDASESGYDRNMYLNTLFGYIALVGTSKKAIHYGEVDIVGPKASKKTGIDPRGKMVVSELVGRMRTLSVAVSEGPVKGATLRQMCEPFAQNAYDFLVVMAEMGTYSQLATKMTRSGFKEPQVMFDFASGLDLKALTLQEATVIQAMHSRLFRTEGAKGVFNAQSSIGEQAVEI
notes: The partner in the assay is the whole filamentous virus particle in plant sap
  binding result: no binding
